According to the RNAGym collection of RNA variant scans (doi:10.7554/elife.80360):

B1: HDV Ribozyme (parent)
chain: GGCCGGCAUGGUCCCAGCCUCCUCGCUGGCGCCGGCUGGGCAACAUUCCGAGGGGACCGUCCCCUCGGUAAUGGCGAAUGGGACCCA

Variants of: B1
Assay: self-cleavage, relative activity (ratio to wild type); higher = more cleavage; co-transcriptional

Variant	self-cleavage
GGCCGGCAUGGUCCCAGCCUCCUCGCUGGCGCCGGCUGGGCAACAUUCCGAGGGGACCGUCCCCACGGUAAUGGCGAAUGGGACGCA [U65A C85G]	0.604
GGCCGGCAUGGUCGCAGCCACCUCGCUGGCGCCGGCUGGGCAACAUUCCGAGGGGACCGUCCCCUCGGUAAUGGCGAAUGGGACCCA [C14G U20A]	0
GGCCGGAAUGGUCCCAGCCUCCUCGCUGGCGCCGGCUUGGCAACAUUCCGAGGGGACCGUCCCCUCGGUAAUGGCGAAUGGGACCCA [C7A G38U]	0.0346
GGCUGGCAUGGUCCCAGCCUCCUCGCUGGCGCCGGCUGGGCAACAUUCCGAGGGGACCGUCCCCUCGGUAAUGGCGAAUGGGACGCA [C4U C85G]	0.935
GGCCGGCAUGGUCCCAGCCUCCUCGCUGGCGCCGGCUGGGCAACAUUCCGAGGGGACCGUCCCCGCGGUAAUGGCGAAAGGGACCCA [U65G U79A]	0.306
GGCCGGCAUGGUCCCAGCCUCCUCGCUGCCGCCGGCUGGGCAACAUUCCGAGGGGACCGUCCCCUCGGUGAUGGCGAAUGGGACCCA [G29C A70G]	0.101
GGCCGGCUUGGUCCCAGCCUCCUCGCUGGCGCCGGCUGGGCAACAUUCCGAGGGGACCGUCCACUCGGUAAUGGCGAAUGGGACCCA [A8U C63A]	0.415
GGCCGGCAUGGUCCCACCCUCCUCGCUGGCGCCGGCUGGGCAACAUUCCGAGGGGACGGUCCCCUCGGUAAUGGCGAAUGGGACCCA [G17C C58G]	0.32
GGCCUGCAUGGUCCCAGCCUCCUCGCUGGCGCCGUCUGGGCAACAUUCCGAGGGGACCGUCCCCUCGGUAAUGGCGAAUGGGACCCA [G5U G35U]	0.108
GGCCUGCAUGGUCCCAGCCUCCUCGCUGGCGCCGGCUGGGCAACAUUCCGAGGGGACCGUCCGCUCGGUAAUGGCGAAUGGGACCCA [G5U C63G]	0
GGCCGGCAUGGUCCCAGCCUCCUCGCGGGCGCCGGCUGGGCAACAUUCCGAGGGGACCGUCCCCUCGGUAAUGGCGAAUGGAACCCA [U27G G82A]	0.534
GGCCGGCAUGGUCCCAGCCUCCUCGCUGGCGCCGGCUUGGCAACAUUCCGAGGGGACCGUCCCCUCGGUAAUGGCGAGUGGGACCCA [G38U A78G]	0.203
GGCCGGCAUCGUCCCAGCCUCCUCGCUGGCGCCGGCUGGGCAACAAUCCGAGGGGACCGUCCCCUCGGUAAUGGCGAAUGGGACCCA [G10C U46A]	0.525
GGCGGGCAUGGUCCCAGCCUCCUCGCUGGCGCCGGCUGGGCAACUUUCCGAGGGGACCGUCCCCUCGGUAAUGGCGAAUGGGACCCA [C4G A45U]	0.161
GGCCAGCAUGGUCCCAGCCUCCUCGCUGGCGCCGGCUGGGCAACAUUCCGAGGGGACCGUCCCCUCGGUAAUUGCGAAUGGGACCCA [G5A G73U]	0.108
GGUCGGCAUGGUCCCAGCCUCCUCGCUGGCGCCGGCUGGGCAACAUUCCGAUGGGACCGUCCCCUCGGUAAUGGCGAAUGGGACCCA [C3U G52U]	0.723

Variant	self-cleavage
GACCGGCAUGGUCCCAGCCUCCUCGCUGGCGCCGGCUGGGCAACAUUCCGAGGGGACCGUCCCCUCGGUAAUGGCGUAUGGGACCCA [G2A A77U]	0.0631
GGCCGGCAUGGUCCCAGCCUCCUCGCUGGCGCCGGCUCGGCAACAUUCCGAGGGGCCCGUCCCCUCGGUAAUGGCGAAUGGGACCCA [G38C A56C]	0.181
GGCCGGCAUGGUCCCAGCCUCCUCGCUGGCGCCGGCUGGGCAACAUUCCGAGGGGACCGUUCCCUCGGUAACGGCGAAUGGGACCCA [C61U U72C]	0.356
GGCCGGCAUGGUCCCAGCCUGCUCGCUGGCGCCGGCUGGGCAACAUUCCGAGGGGACCGUCCCCUCGGUAAAGGCGAAUGGGACCCA [C21G U72A]	0.0723
GGCCGGCAUGGUCCCAGCCUCCUCGCUGGCGCCGGCUGGGCAACAUUCCGAGGGGACAGUCCCCUCGUUAAUGGCGAAUGGGACCCA [C58A G68U]	1.04
GGCCGGCAUGGUCCCAGCCUCCUCGCUGGCGCCGGCUGGGCUACAUUCCGAGGGGACCGUCCCCUCGGUAAUCGCGAAUGGGACCCA [A42U G73C]	0.267
UGCCGGCAUGGUCCCAGCCUCCUUGCUGGCGCCGGCUGGGCAACAUUCCGAGGGGACCGUCCCCUCGGUAAUGGCGAAUGGGACCCA [G1U C24U]	0.409
GGCCGGCAUGGUCUCAGCCUCCUCGCUGGCGCCGGCUGGGCAACAUUCCGAAGGGACCGUCCCCUCGGUAAUGGCGAAUGGGACCCA [C14U G52A]	0.973
GGCCGGCAUGGUCCCAGCCUCCUCGCUGGCGCCGGGUGGGCAACAUUCCGAGUGGACCGUCCCCUCGGUAAUGGCGAAUGGGACCCA [C36G G53U]	0.148
GGCCGGCAUGGUCCCAGCCUCUUCGCUGGCGCCGGCUGGGCAACAUUCCGAGGGGACCGUCCCCUAGGUAAUGGCGAAUGGGACCCA [C22U C66A]	0.758
GGCCGGCAUGGUCCCAGCGUCCUCGCUGGCGCCGGCUGGCCAACAUUCCGAGGGGACCGUCCCCUCGGUAAUGGCGAAUGGGACCCA [C19G G40C]	0.102
GGCCGGCAUGGUCCCAGCCUCCUCGCUGGCGCCGGCUGGGCAACUUACCGAGGGGACCGUCCCCUCGGUAAUGGCGAAUGGGACCCA [A45U U47A]	0.973
GGCCGGCAUGGUCCCAGCCUCCUCGCUGGCGCCUACUGGGCAACAUUCCGAGGGGACCGUCCCCUCGGUAAUGGCGAAUGGGACCCA [G34U G35A]	0.204
GGCCGGCAUGGUCCCAGCCUCCUGGCUGGCGCCGGCUGGGCAACCUUCCGAGGGGACCGUCCCCUCGGUAAUGGCGAAUGGGACCCA [C24G A45C]	0.0302
GGCCGGCAUGGUCCCAGCCUCCUCGCUGGCGCCGGCUGGGCAACAUUCCGAGGGGACCGUCCCCUUGGUAAUGGCGAAUGGGACCAA [C66U C86A]	0.905
GGCCGGCAUGGUCCCAGCCUCCUCGUUGGCGCCGGCUGGGCAGCAUUCCGAGGGGACCGUCCCCUCGGUAAUGGCGAAUGGGACCCA [C26U A43G]	0.745
